B1: CPEB3 Ribozyme (parent)
chain: GGGGGCCACAGCAGAAGCGUUCACGUCGCGGCCCCUGUCAGAUUCUGGUGAAUCUGCGAAUUCUGCUGU

The variants in the data set derive from B1. Description: self-cleavage, relative activity (ratio to wild type); higher = more cleavage; co-transcriptional.
Regarding GGGGGCCACAGCAGAAGCGUUCACGUCGCGGCCCCUGUCAGAUUCUGGAGAAUCUGCGAAUUUUGCUGU [U49A C63U], the self-cleavage is 0.94.
In the case of GGGGGCCACAGCAGAAGCGUUCACGUCGCGGCCCCUGUCAGAUUCUGCUGAAUGUGCGAAUUCUGCUGU [G48C C54G], the self-cleavage is 0.919.
Regarding GGGGGCCACAGCAGAAGCGUUCACGUCGCGGCCCCUGUCAGAUUCUGCUGAAUAUGCGAAUUCUGCUGU [G48C C54A], the self-cleavage is 0.921.
As for GGGGGCCACAGCAGAAGCGUUCACGUCGCGGCCCCUGUCAGAUUCUGUUGAAUCUGCGAAUUCUACUGU [G48U G65A], the self-cleavage stood at 0.961.
For GGGGGCCACAGCAGAAGCGUUCACGUCGCGGCCCCUGUCAGAUUCUGGCGGAUCUGCGAAUUCUGCUGU [U49C A51G], the self-cleavage turned out to be 1.03.
As to GGGGGCCACAGCAGAAGCGUUCACGUCGCGGCCCCUGUCAGAUUCUGAAGAAUCUGCGAAUUCUGCUGU [G48A U49A], the self-cleavage came out at 0.984.
In the case of GGGGGCCACAGCAGAAGCGUUCACGUCGCGGCCCCUGUCAGAUUCUGUUGAAUCUGGGAAUUCUGCUGU [G48U C57G] it was 0.398; in that of GGGGGCCACAGCAGAAGCGUUCACGUCGCGGCCCCUGUCAGAUUCUGUUGAAUCUGUGAAUUCUGCUGU [G48U C57U], 0.388.
As for GGGGGCCACAGCAGAAGCGUUCACGUCGCGGCCCCUGUCAGAUUCUGUUGAAUCUGCCAAUUCUGCUGU [G48U G58C], the self-cleavage was 0.999.
For the variant GGGGGCCACAGCAGAAGCGUUCACGUCGCGGCCCCUGUCAGAUUCUGGAGAAUCUGCGAAUUCUGCCGU [U49A U67C], the self-cleavage was 0.99.
Turning to GGGGGCCACAGCAGAAGCGUUCACGUCGCGGCCCCUGUCAGAUUCUGGAGAAUCUGCGAAUUCUGCGGU [U49A U67G], the self-cleavage stood at 1.03.
For GGGGGCCACAGCAGAAGCGUUCACGUCGCGGCCCCUGUCAGAUUCUGGAGAAUCUGCGAAUUCUGCUUU [U49A G68U], the self-cleavage came out at 0.982.
Regarding GGGGGCCACAGCAGAAGCGUUCACGUCGCGGCCCCUGUCAGAUUCUGCUGAAUCGGCGAAUUCUGCUGU [G48C U55G], the self-cleavage was 0.864.
In the case of GGGGGCCACAGCAGAAGCGUUCACGUCGCGGCCCCUGUCAGAUUCUGCUGAAUCCGCGAAUUCUGCUGU [G48C U55C] it was 0.963; in that of GGGGGCCACAGCAGAAGCGUUCACGUCGCGGCCCCUGUCAGAUUCUGUUGAAUCUGCGGAUUCUGCUGU [G48U A59G], 0.993.
Next, GGGGGCCACAGCAGAAGCGUUCACGUCGCGGCCCCUGUCAGAUUCUGGAGAAUCUGCGAAUUCUGUUGU [U49A C66U]: 0.998; GGGGGCCACAGCAGAAGCGUUCACGUCGCGGCCCCUGUCAGAUUCUGUUGAAUCAGCGAAUUCUGCUGU [G48U U55A]: 1.
As to GGGGGCCACAGCAGAAGCGUUCACGUCGCGGCCCCUGUCAGAUUCUGCUGAAUCUGCUAAUUCUGCUGU [G48C G58U], the self-cleavage turned out to be 0.969.
Turning to GGGGGCCACAGCAGAAGCGUUCACGUCGCGGCCCCUGUCAGAUUCUGGAGAAUCUGCGAAUUCUUCUGU [U49A G65U], the self-cleavage is 0.821.
In the case of GGGGGCCACAGCAGAAGCGUUCACGUCGCGGCCCCUGUCAGAUUCUGCUGAAUCUGCGAAUUGUGCUGU [G48C C63G] it was 0.829.
For GGGGGCCACAGCAGAAGCGUUCACGUCGCGGCCCCUGUCAGAUUCUGCUGAAUCUGCGAGUUCUGCUGU [G48C A60G], the self-cleavage is 0.948.
With GGGGGCCACAGCAGAAGCGUUCACGUCGCGGCCCCUGUCAGAUUCUGGAGAUUCUGCGAAUUCUGCUGU [U49A A52U], the self-cleavage was determined as 1.02.
In the case of GGGGGCCACAGCAGAAGCGUUCACGUCGCGGCCCCUGUCAGAUUCUGGAGACUCUGCGAAUUCUGCUGU [U49A A52C] it was 1.
For GGGGGCCACAGCAGAAGCGUUCACGUCGCGGCCCCUGUCAGAUUCUGGAGAAUCUGCGAAUUCAGCUGU [U49A U64A], the self-cleavage was determined as 0.942.
As to GGGGGCCACAGCAGAAGCGUUCACGUCGCGGCCCCUGUCAGAUUCUGAUGAACCUGCGAAUUCUGCUGU [G48A U53C], the self-cleavage turned out to be 0.958.
Turning to GGGGGCCACAGCAGAAGCGUUCACGUCGCGGCCCCUGUCAGAUUCUGAUGAAACUGCGAAUUCUGCUGU [G48A U53A], the self-cleavage was determined as 1.03.
In the case of GGGGGCCACAGCAGAAGCGUUCACGUCGCGGCCCCUGUCAGAUUCUGAUGAAGCUGCGAAUUCUGCUGU [G48A U53G] it was 0.987; in that of GGGGGCCACAGCAGAAGCGUUCACGUCGCGGCCCCUGUCAGAUUCUGCUGAAACUGCGAAUUCUGCUGU [G48C U53A], 0.968.
As to GGGGGCCACAGCAGAAGCGUUCACGUCGCGGCCCCUGUCAGAUUCUGCUGAAUCUGCGAAUUCUGCUGA [G48C U69A], the self-cleavage was 1.01.
Turning to GGGGGCCACAGCAGAAGCGUUCACGUCGCGGCCCCUGUCAGAUUCUGCUGAAUCUGCGAAUUCUGCUGG [G48C U69G], the self-cleavage is 1.05.
Take GGGGGCCACAGCAGAAGCGUUCACGUCGCGGCCCCUGUCAGAUUCUGUUGAAUCUGCGAAUUCUGGUGU [G48U C66G]: the self-cleavage stood at 0.937.
In the case of GGGGGCCACAGCAGAAGCGUUCACGUCGCGGCCCCUGUCAGAUUCUGCUGAAUCUUCGAAUUCUGCUGU [G48C G56U], the self-cleavage stood at 0.962.
Consider GGGGGCCACAGCAGAAGCGUUCACGUCGCGGCCCCUGUCAGAUUCUGUUGAAUCUGCGAAGUCUGCUGU [G48U U61G], for which the self-cleavage was determined as 0.958.
For the variant GGGGGCCACAGCAGAAGCGUUCACGUCGCGGCCCCUGUCAGAUUCUGGAGAAUCUGUGAAUUCUGCUGU [U49A C57U], the self-cleavage amounted to 0.379.
Turning to GGGGGCCACAGCAGAAGCGUUCACGUCGCGGCCCCUGUCAGAUUCUGGAGAAUCUCCGAAUUCUGCUGU [U49A G56C], the self-cleavage worked out at 0.765.
In the case of GGGGGCCACAGCAGAAGCGUUCACGUCGCGGCCCCUGUCAGAUUCUGUUGAAACUGCGAAUUCUGCUGU [G48U U53A] it was 1; in that of GGGGGCCACAGCAGAAGCGUUCACGUCGCGGCCCCUGUCAGAUUCUGUUGAAUCUGCGAUUUCUGCUGU [G48U A60U], 0.561.
Turning to GGGGGCCACAGCAGAAGCGUUCACGUCGCGGCCCCUGUCAGAUUCUGGCGAAUAUGCGAAUUCUGCUGU [U49C C54A], the self-cleavage was found to be 0.782.
As to GGGGGCCACAGCAGAAGCGUUCACGUCGCGGCCCCUGUCAGAUUCUGAUGAAUCUGCGAAUACUGCUGU [G48A U62A], the self-cleavage was determined as 0.973.

These data come from the RNAGym collection of RNA variant scans (doi:10.7554/elife.80360).
